Measured values published in PMC8187598.

Experiments:
[1] = biological target: His-tagged α subunit of acetyl-CoA carboxylase (AccA), biotinylated (Streptomyces hygroscopicus var. ascomyceticus FS35)
[2] = biological target: His-tagged α subunit of acetyl-CoA carboxylase (AccA), biotinylated (Streptomyces hygroscopicus var. ascomyceticus FS35); remark: listed apart in the source

B1: GlnB protein (PII signal transduction protein encoded by gene 1_2537), native (untagged) (natural protein)
chain: MSIKAEYIWIDGTQPTAKLRSKTKILSDGSRLPRWGFDGSSTNQAEGHASDLVLEPVFSCPDPIRGGDHLLVLCEVLHTDLTPHPSNTRALLRPVAERFAGQEPIFGIEQEYTFLKGDRPLGFPEGGGYPAPQADYYCGVGADAIFGREIVEKHLDLCLAAGLGLSGINAEVMPGQWEFQVGALPPLEVSDHMWVARWLLHRVAEEFGVTASLDAKPAKGDWNGAGAHTNFSTRAMREGYDPIITACEALGQDDKPLEHVRQYGTGIEDRLTGAHETAPWDAYSYGASDRGASVRIPWQVEVEKKGYIEDRRPNANVDPYVVTRLMVDTCCTELARREQI
[1]
  maximal calculated inhibition of ACC by GlnB at rising concentrations (from 0 μM, stable above 1.5 μM), without 2-OG: 50%
  maximal calculated inhibition of PCC by GlnB at rising concentrations (from 0 μM, stable above 1.5 μM), without 2-OG: 24.7%
[2]
  in vitro activity of ACC in the coupled enzyme assay with 5 μM GlnB, against 100% without GlnB: 54.2%
  in vitro activity of PCC in the coupled enzyme assay with 5 μM GlnB, against 100% without GlnB: 76.5%
